Square brackets hold non-standard residues; d marks the D form. Ends that are not written are not given here.
Target: T1, MitTx β subunit (Texas coral snake, UniProt G9I930 31-149)
T1 sequence: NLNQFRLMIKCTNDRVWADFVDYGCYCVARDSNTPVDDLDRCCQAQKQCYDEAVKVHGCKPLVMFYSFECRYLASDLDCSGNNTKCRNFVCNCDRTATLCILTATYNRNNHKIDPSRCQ
Assay: crystal structure

B1: MitTx α subunit (natural protein)
chain: [PCA]IRPAFCYEDPPFFQKCGAFVDSYYFNRSRITCVHFFYGQCDVNQNHFTTMSECNRVCHG
modifications: cysteine pairing not given here
  binding result: binds
